From patent US20220153864A1 (Pieris, published 2022)

How the values were obtained:
[1] = molecular target: T1, human GPC3 expressed on cells (SK-Hep1::huGPC3; HepG2, Hep3B and MKN-45 tumor cells) (human, UniProt P51654 25-554); test: flow cytometry on HepG2 tumor cells (GPC3 high)
T1 construct: whole, on cells; also called GPC3-positive tumor cells; human GPC3-expressing cells
Experimental: (§1) 5×10⁴ cells per well were incubated for 1 h in ice-cold PBS containing 5% fetal calf serum (PBS-FCS). A dilution series of the testing molecule were added to the cells and incubated for 1 h on ice. Cells were washed twice with PBS and then incubated with a goat anti-hlgG Alexa647-labeled antibody or goat anti-hlgG Alexa488-labeled antibody for 30 min on ice. Cells were subsequently washed and analyzed using iQue Flow cytometer (Intellicyte Screener). Mean geometric fluorescent signals were plotted and fitted with Graphpad software. The geometric means of the fluorescence intensity were used to calculate EC₅₀ values using a four-parameter logistic regression with bottom fixed to background.
(§2) For flow cytometric analysis, tumor cell lines with different GPC3 expression levels (high to moderate expression: HepG2>Hep3B>MKN-45) and GPC3 negative cell line NCI-N87 were incubated with an exemplary fusion protein SEQ ID NOs: 87 and 82, the GPC3 antibody or the CD137 specific lipocalin mutein (Fc fusion) as included in the fusion protein (SEQ ID NOs: 81 and 82 and SEQ ID NO: 98, respectively), a reference CD137 antibody SEQ ID NOs: 26 and 27, or an isotype control (SEQ ID NO: 24 and 25), and detected using a fluorescently labeled anti-human IgG antibody as described in Example 6.

[2] = molecular target: T1, human GPC3 expressed on cells …; test: flow cytometry on MKN-45 tumor cells (GPC3 moderate)
Experimental: as §1, §2

[3] = molecular target: T2, human CD137 expressed on cells (Flp-In-CHO::huCD137; NFkB-luc2/CD137 Jurkat cells) (human, UniProt Q07011 24-255); test: flow cytometry on Flp-In-CHO::huCD137 cells, anti-human IgG detection
T2 construct: whole, on cells; also called human CD137-expressing cells
T2 sequence (Q07011 24-255): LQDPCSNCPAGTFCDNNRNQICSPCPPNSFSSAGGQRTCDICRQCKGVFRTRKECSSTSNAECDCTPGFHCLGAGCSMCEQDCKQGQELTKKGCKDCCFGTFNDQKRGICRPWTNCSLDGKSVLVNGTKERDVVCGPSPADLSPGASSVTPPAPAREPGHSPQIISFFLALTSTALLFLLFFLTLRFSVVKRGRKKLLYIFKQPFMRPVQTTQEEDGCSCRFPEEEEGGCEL
Experimental: (§3) For flow cytometric analysis, respective cell lines were incubated with an exemplary fusion protein (SEQ ID NOs: 87 and 82), the GPC3 antibody or the CD137 specific lipocalin mutein (Fc fusion) as included in the fusion protein (SEQ ID NOs: 81 and 82 and SEQ ID NO: 98, respectively), a reference CD137 antibody SEQ ID NOs: 26 and 27, or an isotype control (SEQ ID NOs: 24 and 25) and detected using a fluorescently labeled anti-human IgG antibody in FACS analysis as described in the following:
as §1

[4] = molecular target: T3, recombinant human GPC3 (huGPC3) (R&D Systems) (human, UniProt P51654 25-559); test: SPR (Biacore T200), binder captured by anti-human IgG Fc, huGPC3 as analyte, 1:1 model
T3 construct: also called biotinylated huGPC3
T3 sequence (P51654 25-559 limits assumed): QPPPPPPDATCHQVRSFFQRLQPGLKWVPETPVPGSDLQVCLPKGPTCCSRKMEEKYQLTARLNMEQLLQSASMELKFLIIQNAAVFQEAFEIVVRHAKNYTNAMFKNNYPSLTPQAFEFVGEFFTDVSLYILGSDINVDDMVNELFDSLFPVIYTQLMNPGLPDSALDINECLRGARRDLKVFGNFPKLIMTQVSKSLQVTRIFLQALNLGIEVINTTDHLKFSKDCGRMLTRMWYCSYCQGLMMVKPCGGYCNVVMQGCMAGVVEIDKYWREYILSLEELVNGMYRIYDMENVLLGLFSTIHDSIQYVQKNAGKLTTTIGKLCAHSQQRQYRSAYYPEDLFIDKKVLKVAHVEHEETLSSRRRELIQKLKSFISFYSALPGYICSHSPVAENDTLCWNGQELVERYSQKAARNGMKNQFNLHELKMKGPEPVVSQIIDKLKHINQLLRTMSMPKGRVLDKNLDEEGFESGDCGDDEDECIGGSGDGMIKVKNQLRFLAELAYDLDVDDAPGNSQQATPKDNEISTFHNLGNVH
Experimental: The anti-human IgG Fc antibody (GE Healthcare) was immobilized on a CM5 sensor chip using standard amine chemistry: the carboxyl groups on the chip were activated using 1-ethyl-3-(3-dimethylaminopropyl)-carbodiimide (EDC) and N-hydroxysuccinimide (NHS). Subsequently, anti-human IgG Fc antibody solution (GE Healthcare) at a concentration of 25 μg/mL in 10 mM sodium acetate (pH 5.0) was applied at a flow rate of 5 μL/min until an immobilization level of 6000-10000 resonance units (RU) was achieved. Residual non-reacted NHS-esters were blocked by passing a solution of 1M ethanolamine across the surface. The reference channel was treated in an analogous manner. Subsequently, testing fusion proteins (SEQ ID NOs: 87 and 82 and CD137Ac1-Fusion 1) or the GPC3 antibody as included in the fusion protein (SEQ ID NOs: 81 and 82) at 0.2 μg/ml in HBS-EP+ buffer was captured by the anti-human IgG-Fc antibody at the chip surface for 180 s at a flow rate of 10 μL/min. After each capture step, the needle was washed.
The binding assay was carried out with a contact time of 180 s, a dissociation time of 900 s, and a flow rate of 30 μL/min. After each injection, the needle was cleaned with 40 mM NaOH+20% isopropanol. All measurements were performed at 25° C. […] Prior to the protein measurements, three startup cycles were performed for conditioning purposes. Data were evaluated with Biacore T200 Evaluation software (v2.0). Double referencing was used and the 1:1 binding model was used to fit the raw data.

[5] = molecular target: T4, huCD137-His (recombinant human CD137 with C-terminal polyhistidine tag, R&D Systems) (human, UniProt Q07011 24-186); test: dual-binding ELISA: huCD137-His coated, fusion titrated, detection with biotinylated huGPC3
T4 construct: also called biotinylated huCD137-His; not shown: C-terminal polyhistidine tag
Experimental: Recombinant huCD137-His (R&D Systems) in PBS (1 μg/mL) was coated overnight on microtiter plates at 4° C. The plates were washed five times after each incubation step with 100 μL PBS-0.05% T. The plates were blocked with PBS-0.1% T-2% BSA for 1 h at room temperature and subsequently washed again. Different concentrations of tested fusion proteins were added to the wells and incubated for 1 h at room temperature, followed by a wash step. Subsequently, biotinylated huGPC3 was added at a constant concentration of 1 μg/mL in PBS-0.1% T-2% BSA for 1 h. After washing, a 1:5000 dilution of ExtrAvidin-HRP (Sigma-Aldrich) in PBS-0.1% T-2% BSA was added to the wells and incubated for 1 h. After an additional wash step, fluorogenic HRP substrate (QuantaBlu, Thermo) was added to each well, and the fluorescence intensity was detected using a fluorescence microplate reader.
Exemplary dual binding data are shown in FIG. 3, together with the fit curves resulting from a 1:1 sigmoidal binding fit, where the EC₅₀ value and the maximum signal were free parameters, and the slope was fixed to unity.

[6] = molecular target: T2, human CD137 expressed on cells …; test: flow cytometry, CHO cells transfected with human CD137, detection labelled anti-human IgG, GeoMean BL1-H [lower graph]
Experimental: as §3, §1

T1 sequence (P51654 25-554 limits assumed): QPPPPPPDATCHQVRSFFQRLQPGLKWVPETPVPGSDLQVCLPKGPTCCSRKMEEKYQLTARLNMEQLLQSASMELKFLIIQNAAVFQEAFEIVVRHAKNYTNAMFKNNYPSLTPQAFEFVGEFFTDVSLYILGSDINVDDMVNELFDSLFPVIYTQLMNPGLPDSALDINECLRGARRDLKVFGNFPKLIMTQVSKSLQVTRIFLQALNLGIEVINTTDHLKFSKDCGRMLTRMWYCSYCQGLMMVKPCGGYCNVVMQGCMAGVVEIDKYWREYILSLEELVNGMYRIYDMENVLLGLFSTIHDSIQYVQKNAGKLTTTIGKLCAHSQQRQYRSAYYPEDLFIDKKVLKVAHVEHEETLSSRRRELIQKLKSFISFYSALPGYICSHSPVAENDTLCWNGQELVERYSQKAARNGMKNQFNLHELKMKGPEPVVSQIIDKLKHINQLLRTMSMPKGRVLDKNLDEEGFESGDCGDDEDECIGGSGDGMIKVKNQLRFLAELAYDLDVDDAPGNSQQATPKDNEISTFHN

B1: fusion protein SEQ ID NOs: 87 and 82 (bispecific antibody, human IgG4 S228P, kappa, F234A L235A)
heavy: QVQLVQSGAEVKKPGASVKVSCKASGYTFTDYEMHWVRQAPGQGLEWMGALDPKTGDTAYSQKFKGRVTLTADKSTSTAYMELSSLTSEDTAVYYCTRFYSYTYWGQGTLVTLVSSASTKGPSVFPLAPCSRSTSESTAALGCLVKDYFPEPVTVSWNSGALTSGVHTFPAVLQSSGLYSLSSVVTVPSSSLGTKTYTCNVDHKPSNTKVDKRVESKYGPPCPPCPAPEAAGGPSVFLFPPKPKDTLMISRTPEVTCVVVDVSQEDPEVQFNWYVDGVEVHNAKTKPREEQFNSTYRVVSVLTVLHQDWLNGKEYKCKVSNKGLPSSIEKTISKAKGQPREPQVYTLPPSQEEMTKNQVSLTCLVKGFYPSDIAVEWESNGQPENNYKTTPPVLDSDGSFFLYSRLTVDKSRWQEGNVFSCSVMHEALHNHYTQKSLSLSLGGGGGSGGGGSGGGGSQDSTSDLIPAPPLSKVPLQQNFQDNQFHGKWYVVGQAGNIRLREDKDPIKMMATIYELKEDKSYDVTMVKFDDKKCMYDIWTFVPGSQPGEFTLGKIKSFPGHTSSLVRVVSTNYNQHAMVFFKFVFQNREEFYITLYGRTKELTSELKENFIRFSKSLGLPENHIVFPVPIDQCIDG
light: DVVMTQSPLSLPVTPGEPASISCRSSQSLVHSNRNTYLHWYLQKPGQSPQLLIYKVSNRFSGVPDRFSGSGSGTDFTLKISRVEAEDVGVYYCSQNTHVPPTFGQGTKLEIKRTVAAPSVFIFPPSDEQLKSGTASVVCLLNNFYPREAKVQWKVDNALQSGNSQESVTEQDSKDSTYSLSSTLTLSKADYEKHKVYACEVTHQGLSSPVTKSFNRGEC
notes: also called exemplary fusion protein
B1 showed an EC50 [1] of 20.6 nM, an EC50 [2] of 2.59 nM and an EC50 [3] of 13.1 nM. For the same binder, the Kd [4] was 0.657 nM, the koff [4] was 0.000269 s⁻¹ and the kon [4] was 409000 M⁻¹ s⁻¹. The EC50 [5] was 4.2 nM and the “EC50 (read off the curve)” value [6] was about 20 nM.
